Measured values reported in PMC9344812, “Induction of beige‐like adipocyte markers and functions in 3T3‐L1 cells by Clk1 and PKCβII inhibitory molecules” (Journal of Cellular and Molecular Medicine, 2022).

T1: PGC1α 6X his-tagged construct (UniProt Q9UBK2 1-798)
T1 construct: PGC1α, 6X his-tagged construct held on a Ni-NTA chip
T1 sequence (looked up): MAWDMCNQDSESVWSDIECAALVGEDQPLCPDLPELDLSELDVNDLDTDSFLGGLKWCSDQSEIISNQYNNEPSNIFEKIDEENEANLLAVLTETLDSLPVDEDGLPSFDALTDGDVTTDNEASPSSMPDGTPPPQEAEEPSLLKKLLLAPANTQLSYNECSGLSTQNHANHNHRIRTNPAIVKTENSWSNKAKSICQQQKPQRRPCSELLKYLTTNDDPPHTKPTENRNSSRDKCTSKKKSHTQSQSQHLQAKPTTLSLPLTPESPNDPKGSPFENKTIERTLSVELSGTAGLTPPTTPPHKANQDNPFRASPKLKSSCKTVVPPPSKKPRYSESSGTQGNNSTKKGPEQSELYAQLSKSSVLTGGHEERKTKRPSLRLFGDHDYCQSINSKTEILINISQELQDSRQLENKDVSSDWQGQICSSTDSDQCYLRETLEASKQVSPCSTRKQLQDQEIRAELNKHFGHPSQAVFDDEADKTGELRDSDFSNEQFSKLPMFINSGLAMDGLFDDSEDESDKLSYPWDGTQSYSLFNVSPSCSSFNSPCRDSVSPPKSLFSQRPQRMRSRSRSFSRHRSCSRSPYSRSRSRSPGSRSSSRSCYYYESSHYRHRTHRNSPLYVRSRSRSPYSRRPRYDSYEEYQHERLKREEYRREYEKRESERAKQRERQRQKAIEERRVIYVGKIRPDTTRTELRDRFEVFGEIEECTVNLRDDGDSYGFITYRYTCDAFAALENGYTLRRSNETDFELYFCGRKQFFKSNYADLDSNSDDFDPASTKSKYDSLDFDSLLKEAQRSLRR


Assays:
Settings in all cases: both partners purified
[1] = molecular target: T1, PGC1α 6X his-tagged construct; experiment: SPR; Biacore T200; ~1000 RU PGC1α 6X his held non-covalently on a Ni-NTA chip; Clk1 flowed, 30 µl/min; one-site specific binding model with Hill slope
[2] = molecular target: T2, Clk2 (recombinant, covalently immobilised on the CM5 chip) (UniProt P49760 1-499); experiment: SPR; Biacore T200; Clk1, Clk2 (1000 RU) and Clk4 (1000 RU) covalently immobilised on a CM5 chip by NHS/EDC; PGC1α titrated in HBS-N without DMSO, 30 µl/min, 60 s association, 120 s dissociation; steady state, one-site specific binding model
T2 construct: Clk2 kinase, recombinant; source: bought: Abcam #AB63190 (recombinant)

[3] = molecular target: T3, Clk4 (recombinant, covalently immobilised on the CM5 chip) (UniProt Q9HAZ1 1-481); experiment: as above
T3 construct: Clk4 kinase, recombinant; source: bought: Abcam#AB204144 (recombinant)

[4] = molecular target: T4, Clk1 (recombinant, covalently immobilised on the CM5 chip) (UniProt P49759 1-484); experiment: as above
T4 construct: Clk1 kinase, recombinant; The methods print the catalogue number beside PDB 1Z57, which was used for modelling; also called Clk1 GST; source: bought: AbCam #114 706 (recombinant)
T4 sequence (P49759 whole entry): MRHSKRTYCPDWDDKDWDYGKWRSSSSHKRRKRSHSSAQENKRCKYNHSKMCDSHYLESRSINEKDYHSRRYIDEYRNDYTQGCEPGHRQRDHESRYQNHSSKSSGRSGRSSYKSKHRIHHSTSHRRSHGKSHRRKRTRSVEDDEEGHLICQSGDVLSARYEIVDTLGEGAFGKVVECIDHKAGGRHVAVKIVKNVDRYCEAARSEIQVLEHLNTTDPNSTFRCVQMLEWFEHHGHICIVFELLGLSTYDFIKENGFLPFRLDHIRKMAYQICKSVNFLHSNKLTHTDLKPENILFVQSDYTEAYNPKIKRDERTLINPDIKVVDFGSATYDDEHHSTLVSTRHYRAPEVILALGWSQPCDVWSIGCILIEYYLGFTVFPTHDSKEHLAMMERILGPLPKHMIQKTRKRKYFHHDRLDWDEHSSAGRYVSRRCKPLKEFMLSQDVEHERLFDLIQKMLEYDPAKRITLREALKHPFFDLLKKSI

T3 sequence (Q9HAZ1 whole entry): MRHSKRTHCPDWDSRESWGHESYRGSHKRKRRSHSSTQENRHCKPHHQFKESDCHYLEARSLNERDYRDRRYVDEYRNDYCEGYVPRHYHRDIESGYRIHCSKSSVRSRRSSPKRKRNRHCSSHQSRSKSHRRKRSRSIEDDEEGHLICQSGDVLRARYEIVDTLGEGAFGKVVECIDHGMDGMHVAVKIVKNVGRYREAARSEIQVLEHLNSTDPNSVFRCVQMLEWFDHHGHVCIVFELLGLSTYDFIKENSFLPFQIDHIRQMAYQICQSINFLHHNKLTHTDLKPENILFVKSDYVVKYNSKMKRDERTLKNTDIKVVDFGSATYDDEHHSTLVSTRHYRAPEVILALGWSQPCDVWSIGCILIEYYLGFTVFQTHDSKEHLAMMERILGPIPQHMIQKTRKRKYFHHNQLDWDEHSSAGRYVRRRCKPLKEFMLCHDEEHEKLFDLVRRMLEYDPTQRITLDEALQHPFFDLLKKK
T2 sequence (P49760 whole entry): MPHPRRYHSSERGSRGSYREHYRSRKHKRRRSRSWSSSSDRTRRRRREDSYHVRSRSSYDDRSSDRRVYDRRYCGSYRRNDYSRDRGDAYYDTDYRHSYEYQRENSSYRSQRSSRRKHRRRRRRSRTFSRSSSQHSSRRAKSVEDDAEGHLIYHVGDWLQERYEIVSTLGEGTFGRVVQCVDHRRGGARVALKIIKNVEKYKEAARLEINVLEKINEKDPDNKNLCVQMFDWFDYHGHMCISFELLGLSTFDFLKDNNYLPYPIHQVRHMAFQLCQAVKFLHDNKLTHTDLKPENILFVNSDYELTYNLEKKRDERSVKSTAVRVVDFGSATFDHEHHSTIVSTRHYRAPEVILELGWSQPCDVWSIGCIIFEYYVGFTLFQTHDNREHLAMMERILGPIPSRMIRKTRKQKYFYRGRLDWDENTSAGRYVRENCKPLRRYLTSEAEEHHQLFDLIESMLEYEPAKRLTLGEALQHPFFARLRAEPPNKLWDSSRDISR

Kd [1]	Kd [2]	Kd [3]	Kd [4]	Binder
~38 nM				Clk1 (flowed over immobilised PGC1α 6X his) (enzyme, Clk1 kinase, recombinant; May be the same bought protein as m1 (AbCam #114 706)) not shown
	980 nM	509 nM	240 nM	PGC1α (titrated and flowed over the Clk chips) (natural protein, Limits are not printed. They are recalled from the supplier's listing for catalogue H00010891-Q01 (partial human PPARGC1A, NP_037393 aa 689-798, N-terminal GST) and should be verified. GST is left …) TRTELRDRFEVFGEIEECTVNLRDDGDSYGFITYRYTCDAFAALENGYTLRRSNETDFELYFCGRKQFFKSNYADLDSNSDDFDPASTKSKYDSLDFDSLLKEAQRSLRR
